# Patent publication JP2007300927A (dated 2007)
# Numbering of substitutions follows the chain as printed. In names and notes the source's numbering stands.
# B1: M13B3 (antibody, V domains shown)
# VH: EVHLVESGGGLVKPGGSLKLSCAASGFTFSNYAMSWVRQTPEKRLEWVAAINNNGDDTYYLDTVKDRFTISRDNAKNTLYLQMSSLRSEDTALYYCVRQGGAYWGQGTLVTVSA
# VL: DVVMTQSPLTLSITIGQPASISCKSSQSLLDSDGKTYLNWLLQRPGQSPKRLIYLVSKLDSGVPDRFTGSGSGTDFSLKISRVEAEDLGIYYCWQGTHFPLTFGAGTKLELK
# notes: Mouse hybridoma antibody
# B2: L9G11 (antibody, V domains shown)
# VH: QVQLQQPGAELVKPGASVKLSCKASGYTFTSYWMHWVKQRPGQGLEWIGTIDPSDSETHYNLQFKDTATLTVDKSSSTAYMQLSSLTSEDSAVYYCIRGAFYSSYSYWAWFAYWGQGTLVTVSA
# VL: DIVLTQSPTSLAVSLGQSVTISCRASESVEYYGTSLMQWYQQKPGQPPKLLIYGASNVESGVPARFSGSGSGTDFSLNIHPVEEDDIAMYFCQQSRKVPYTFGSGTKLEIK
# notes: Mouse hybridoma antibody
# B3: M6B1 (antibody, V domains shown)
# VH: EVQLVESGGDLVKPGGSLKLSCAASGFTFSSYAMSWVRQTPEKRLEWVAAINSNGGTTYYPDTMKDRFTISRDNAKNTLYLQMSSLRSEDSALYYCTRHNGGYENYGWFAYWGQGTLVTVSA
# VL: DIQMTQSPSSLSASLGGKVTITCKASQDINKNIIWYQHKPGKGPRLLIWYTSTLQPGIPSRFSGSGSGRDYSFSISNLEPEDIATYYCLQYDNLPRTFGGGTKLEIK
# notes: Mouse hybridoma antibody
# B4: ヒト化GC33 H鎖ver.k / L鎖ver.a (antibody, human IgG1, V domains shown)
# VH: QVQLVQSGAEVKKPGASVKVSCKASGYTFTDYEMHWVRQAPGQGLEWMGALDPKTGDTAYSQKFKGRVTLTADKSTSTAYMELSSLTSEDTAVYYCTRFYSYTYWGQGTLVTVSS
# VL: DVVMTQSPLSLPVTPGEPASISCRSSQSLVHSNGNTYLHWYLQKPGQSPQLLIYKVSNRFSGVPDRFSGSGSGTDFTLKISRVEAEDVGVYYCSQNTHVPPTFGQGTKLEIK
# notes: Human IgG1 / κ constant regions; also called GC33 VH ver.k
# B5: GC33 ver.a / mouse (antibody, human IgG1, V domains shown)
# VH: B4 VH with Q6E, L70I, K74E, T87R, T97A
# VL: B4 VL with S7T, T14S, P15L, E17D, P18Q, Q50K, V88L, Y92F, Q105S
# notes: Humanised H chain variable region ver.a combined with the mouse GC33 L chain variable region; human IgG1 / κ constant regions; also called H鎖 ver.a / L鎖 マウスGC33
# B6: ヒト化GC33 H鎖ver.f / L鎖ver.a (antibody, human IgG1, V domains shown)
# VH: B4 VH with Q6E, T87R
# VL: B4 VL
# notes: Human IgG1 / κ constant regions; also called GC33 VH ver.f
# B7: ヒト化GC33 H鎖ver.j / L鎖ver.a (antibody, human IgG1, V domains shown)
# VH: B4 VH with T87R
# VL: B4 VL
# notes: Human IgG1 / κ constant regions; also called GC33 VH ver.j
# B8: ヒト化GC33 H鎖ver.c / L鎖ver.a (antibody, human IgG1, V domains shown)
# VH: B4 VH with Q6E, K74E, T87R
# VL: B4 VL
# notes: Human IgG1 / κ constant regions; also called GC33 VH ver.c
# B9: ヒト化GC33 H鎖ver.i / L鎖ver.a (antibody, human IgG1, V domains shown)
# VH: B4 VH with K74E, T87R
# VL: B4 VL
# notes: Human IgG1 / κ constant regions; also called GC33 VH ver.i
# B10: ヒト化GC33 H鎖ver.h / L鎖ver.a (antibody, human IgG1, V domains shown)
# VH: B4 VH with Q6E
# VL: B4 VL
# notes: Human IgG1 / κ constant regions; also called GC33 VH ver.h
# B11: ヒト化GC33(ver.a / ver.a) (antibody, V domains shown)
# VH: B4 VH with Q6E, L70I, K74E, T87R, T97A
# VL: B4 VL
# notes: Human IgG1 / human κ constant regions (HEFgγ1, HEFgκ); also called GC33 VH ver.a / GC33 VL ver.a
# B12: Asn33をAspに置換した改変抗体(N33D) (antibody, human IgG1, V domains shown)
# VH: B4 VH
# VL: B4 VL with N33D
# notes: Humanised GC33 H chain ver.k (HEFgγ1, human IgG1) with L chain ver.a N33D (HEFgκ, human κ), expressed transiently in COS7; culture supernatant used
# B13: 改変抗体G34W (antibody, human IgG1, V domains shown)
# VH: B4 VH
# VL: B4 VL with G34W
# notes: As G34A: H chain ver.k by 'the method above'; human IgG1/κ; COS7 supernatant
# B14: 改変抗体G34F (antibody, human IgG1, V domains shown)
# VH: B4 VH
# VL: B4 VL with G34F
# notes: as for B13
# B15: 改変抗体G34L (antibody, human IgG1, V domains shown)
# VH: B4 VH
# VL: B4 VL with G34L
# notes: as for B13
# B16: 改変抗体G34D (antibody, human IgG1, V domains shown)
# VH: B4 VH
# VL: B4 VL with G34D
# notes: as for B13
# B17: 改変抗体G34R (antibody, human IgG1, V domains shown)
# VH: B4 VH
# VL: B4 VL with G34R
# notes: as for B13
# B18: 改変抗体G34E (antibody, human IgG1, V domains shown)
# VH: B4 VH
# VL: B4 VL with G34E
# notes: as for B13
# B19: 改変抗体G34Y (antibody, human IgG1, V domains shown)
# VH: B4 VH
# VL: B4 VL with G34Y
# notes: as for B13
# B20: 改変抗体G34S (antibody, human IgG1, V domains shown)
# VH: B4 VH
# VL: B4 VL with G34S
# notes: as for B13
# B21: 改変抗体G34H (antibody, human IgG1, V domains shown)
# VH: B4 VH
# VL: B4 VL with G34H
# notes: as for B13
# B22: 改変抗体G34I (antibody, human IgG1, V domains shown)
# VH: B4 VH
# VL: B4 VL with G34I
# notes: as for B13
# B23: 改変抗体G34A (antibody, human IgG1, V domains shown)
# VH: B4 VH
# VL: B4 VL with G34A
# notes: Humanised GC33 L chain ver.a variant; human IgG1/κ; COS7 culture supernatant
# B24: 改変抗体G34K (antibody, human IgG1, V domains shown)
# VH: B4 VH
# VL: B4 VL with G34K
# notes: as for B13
# B25: 改変抗体G34N (antibody, human IgG1, V domains shown)
# VH: B4 VH
# VL: B4 VL with G34N
# notes: as for B13
# B26: 改変抗体G34T (antibody, human IgG1, V domains shown)
# VH: B4 VH
# VL: B4 VL with G34T
# notes: as for B13
# B27: 改変抗体G34Q (antibody, human IgG1, V domains shown)
# VH: B4 VH
# VL: B4 VL with G34Q
# notes: as for B13
# Biological target: T1, 可溶型GPC3コアタンパク質 (human, UniProt P51654 25-563)
# T1 construct: also called 可溶型GPC3コア蛋白質; soluble GPC3 core protein; not shown: C-terminal His tag
# Assay: ELISA, purified antibody from 10 μg/mL in 3-fold steps on immobilised soluble GPC3 core protein
# T1 sequence (P51654 25-563 S495A/S509A): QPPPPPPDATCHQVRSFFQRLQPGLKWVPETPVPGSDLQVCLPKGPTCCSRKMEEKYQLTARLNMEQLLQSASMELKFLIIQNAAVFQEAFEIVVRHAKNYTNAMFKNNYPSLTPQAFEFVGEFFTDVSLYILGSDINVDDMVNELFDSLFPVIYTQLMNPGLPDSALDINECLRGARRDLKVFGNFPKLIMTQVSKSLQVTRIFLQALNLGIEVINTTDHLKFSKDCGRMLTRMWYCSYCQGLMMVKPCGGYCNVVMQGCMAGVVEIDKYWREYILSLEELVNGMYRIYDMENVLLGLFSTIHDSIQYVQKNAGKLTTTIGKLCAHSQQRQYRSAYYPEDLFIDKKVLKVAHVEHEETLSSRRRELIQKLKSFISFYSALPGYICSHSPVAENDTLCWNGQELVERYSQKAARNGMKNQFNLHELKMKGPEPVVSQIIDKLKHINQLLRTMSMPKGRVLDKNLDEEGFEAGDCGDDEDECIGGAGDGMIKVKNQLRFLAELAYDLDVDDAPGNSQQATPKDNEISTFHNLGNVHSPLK
row,Binder,binding result
1,B1,binds
2,B2,binds
3,B3,binds

# Biological target: T1, 可溶型GPC3コアタンパク質
# Assay: ELISA on GPC3 (Fig. 15)
row,Binder,binding result
1,B4,binds
2,B5,binds
3,B6,binds
4,B7,binds
5,B8,binds
6,B9,binds
7,B10,binds
8,B11,binds

# Biological target: T1, 可溶型GPC3コアタンパク質
# Assay: ELISA on immobilised soluble GPC3 core protein, COS7 supernatant
row,Binder,binding result
1,B12,no binding
2,B13,binds
3,B14,binds
4,B15,binds
5,B16,binds
6,B17,binds
7,B18,binds
8,B19,binds
9,B20,binds
10,B21,binds
11,B22,binds
12,B23,binds
13,B24,binds
14,B25,binds
15,B26,binds
16,B27,binds
